{"source": "the DeepSol protein solubility set"}
{"experiment": "soluble on expression in E. coli; label from the status in PepcDB or PDB records"}
{"sequence": "MGSDKIHHHHHHAEAGVFSDVPTSHWSYPAIKDLAGKNIISGYGNGKFGFGDVATREQVAALIYRALLPNKQGGTFSNDGARYVLQDGSTLNNPYRDIRSGSTLFPEEVLTLTKLGVFNGDGNGGFRPKDSVSRAEMAQIIKNAFQVSAKQKHTFNDVPDGFWAEGAISAVQSNGIASGTGDGKFEPAKTVTREQYAQFLYNALQYKKPAVAVQDTGDAALLAAFKDEVQKRINAYETNITLPYKTTNSNTKEVMNTLFNAYKEVASKNEYTNNNRSNVSYGLSGSPGNYTFTLKITYRETKEQTEYVMKQAKAIVSSITQVGMDDHEKVKAIHDYVVKHVSYDTSYKAYTAYEALVNRSAVCQGYALLTYQLLKEAGIENHFVVGTGDGQPHAWNLVKIENKWYHLDTTFDDPVPDEQGRVTYSYFNLSDEQIARNHEWNRGDYPQATTNYYSTLTNKIAAGGTKTSAYQQILKDTKLNYLGNEYIANNYNEFKNKMQQRYNEKSPKIEILYKQSMDGALQDVKKAIGEIGYPQGANRVSYKAEPYNAKEGYSLVTITFM", "soluble on expression in E. coli": "not soluble"}
{"sequence": "MIQAVFERAEDGELRSAEITGHAESGEYGLDVVCASVSTLAINFINSIEKFAGYEPILELNEDEGGYLMVEIPKDLPSHQREMTQLFFESFFLGMANLSENYSEFVQTRVITEN", "soluble on expression in E. coli": "soluble"}
{"sequence": "MIHLYDAKSFAKLRAAQYAAFHTDAPGSWFDHTSGVLESVEDGTPVLAIGVESGDAIVFDKNAQRIVAYKEKSVKAEDGSVSVVQVENGFMKQGHRGWLVDLTGELVGCSPVVAEFGGHRYASGMVIVTGKGNSGKTPLVHALGEALGGKDKYATVRFGEPLSGYNTDFNVFVDDIARAMLQHRVIVIDSLKNVIGAAGGNTTSGGISRGAFDLLSDIGAMAASRGCVVIASLNPTSNDDKIVELVKEASRSNSTSLVISTDVDGEWQVLTRTGEGLQRLTHTLQTSYGEHSVLTIHTSKQSGGKQASGKAIQTVIKNDELESVLRRLTSN", "soluble on expression in E. coli": "soluble"}
{"sequence": "MSSRIEQIIDEIDEFIESCKFQPLSATKIIVNKEEIEELLRELRLKTPDEIKRYQKIISNKDAILEDAQSKADAIIADAQAKAQELVTQHEIMQKAYAQANDTINAANKQAQEILDSATQDANSIRLSAITYTDDMMANIGSVLNQTLEDAGGKYKGFIDALQSCLDVVNHNRQELAPQTAQAAAMTGSYHEEPADAPEEDSLLDDLGEE", "soluble on expression in E. coli": "not soluble"}
{"sequence": "MSLSLQQIDQIISILNKQSKPYDWVMQEFAKVEELKNFDLDLETFELLGLGLTLNKDNIFTLKTRTTKIKDEIFCIVDIESTGGVSKGEILEIGAVKIQNSKEIGRFQSFVKVKEIPKNITELTGITYEMVENASSLAKVLSDFRLFLKDSIFVAHNVRFDYSFISKALNECGFGILLNRRICTIEFAQCCIESPKYKLEVLKEFLGVENMHHRALDDALAAAEIFKYCLGKLPYHIKTTEELINFTKTARIKEGHHHHHH", "soluble on expression in E. coli": "soluble"}
{"sequence": "RTDTIMVLHMPRTGEPTLLSIPRDSYVNVPGWGMDKANAAFTVGGPELLTQTVEEATGLRIDHYAEIGMGGLANMVDAVGGVEMCPAEPMYDPLANLDIQAGCQEFDGAAALGYVRTRATALGDLDRVVRQREFFSALLSTATS", "soluble on expression in E. coli": "not soluble"}
{"sequence": "MTGQPSTPVRPGSVVRTVRRHRGGRSATVQDMVAAEMPVAFNYNGVPFAVMMATPEDLEDFALGFSLSEGIVDHPQDLRVVAVDTFLEGASLQIEIPPERAAALDQRRRNLDGRSGCGVCGNESIEAVLRVPPVLQSALRIDVDALARALDALHARQPIAAQTGAVHAAGWADAQGMVQLVREDVGRHNALDKLIGALARARVDATQGFAVVTSRASYEMAMKAAQARIPLLAAISAPTALAISLADSAGLTLIGFARDHDCVVYSHPQRLDLGVAVGEPALEHHHHHH", "soluble on expression in E. coli": "not soluble"}
{"sequence": "TLTVQARQLLSGIVQQQNDLLRAIEAQQHLLQLTVWGIKQLQARSGGRGGWMEWDREINNYTSLIHSLIEESQNQQEKNEQELLEL", "soluble on expression in E. coli": "soluble"}
{"sequence": "MIKFYQYKNCTTCKKAAKFLDEYGVSYEPIDIVQHTPTINEFKTIIANTGVEINKLFNTHGAKYRELDLKNKLQTLSDDEKLELLSSDGMLVKRPLAVMGDKITLGFKEDQYKETW", "soluble on expression in E. coli": "soluble"}
{"sequence": "MAVGSVATLATEPGEDAFRKLFRFYRQSRPGTADLEGVIDFSAAHAARGKGPGAQKVIKSQLNVSSVSEQNAYRAGLQPVSKWQAYGLKGYPGFIFIPNPFLPGYQWHWVKQCLKLYSQKPNVCNLDKHMSKEETQDLWEQSKEFLRYKEATKRRPRSLLEKLRWVTVGYHYNWDSKKYSADHYTPFPSDLGFLSEQVAAACGFEDFRAEAGILNYYRLDSTLGIHVDRSELDHSKPLLSFSFGQSAIFLLGGLQRDEAPTAMFMHSGDIMIMSGFSRLLNHAVPRVLPNPEGEGLPHCLEAPLPAVLPRDSMVEPCSMEDWQVCASYLKTARVNMTVRQVLATDQNFPLEPIEDEKRDISTEGFCHLDDQNSEVKRARINPHSLEHHHHHH", "soluble on expression in E. coli": "soluble"}
{"sequence": "MGSDKIHHHHHHMDINLYSDRLKLRNLLSRDWDFFLRLHLDKDVNQYIRSIEPESDIVAKFEQRKAVWLFESGDWLTLVIERIDNSQAVGLIGFRCDDAQLRRAEVGYLIAPEQQGLGFASESLLAVTDWGALQFSMHKYIGICAHENTASRKVLEKVGFVLEGTLKQNNCVDGKWSDDCYMGLLTAQRT", "soluble on expression in E. coli": "not soluble"}
{"sequence": "MGSDKIHHHHHHMYYGSIITVLSSDKNKLTGIAEKLGKLHETAKTKIYYRKKGEYIRSILLTTEYPEKIIDLAEALSLSSTAILYIPETLTWMDGELALLIDSLNTHNKIVISNLDQGKINNILGSLSSFTKFDLYNDIPDLSETEEEDKGIVYVDRVFTVKGVGTVVTGFSFTNVEVHEKLVALPYNKEVEIKSIQVLDEDQKSVSTGVRIGFALKNVKEEEIEDLLYLVKPNVKVVKEIEGQITNYKWSTINQGQNHIIVKGHGIAANIKVDNQKAKIMSSVPIPIVDNRILVLNVNVRQGKPRVAGYISL", "soluble on expression in E. coli": "not soluble"}
{"sequence": "MSARMDNDTAALLERIRSDWARLNHGQGPDSDGLTPSAGPMLTLLLLERLHAALGREIERTYAASGLNAAGWDLLLTLYRSAPPEGLRPTELSALAAISGPSTSNRIVRLLEKGLIERREDERDRRSASIRLTPQGRALVTHLLPAHLATTQRVLAPLSAQEQRTLEELAGRMLAGLEQGV", "soluble on expression in E. coli": "soluble"}
{"sequence": "MSTEQANGTTIEEKKDKVAEVTEKLDNLAVDTTNEANDAKQPARRGGFRGRGRGRGRGGHFYQPRPPYEDQMKKLEEDLASKKVIETGVKGHVKWFSVRGRYGFVARDKPTDENEDFFVHQTAITKSSTIKFYLRTLDDDEPVVFDIVEGLKGPEAANVTGPDGENVRGSRFARTLLTHWRTRGRGGARGRGGRGRGAPRQTRDQDGDEKDEKEKSDTIENSGDGETRGKRRTRRHGKLQPDAPSGEKGDGDAAAATTDAAPAAEKKKKRQRKGNKEPTTTTEQKEETAAPAKA", "soluble on expression in E. coli": "not soluble"}
{"sequence": "MGSDKIHHHHHHMRPTENGVLHLRKKFVASLLAVAIASTTACAQLGISKEQAGTVIGGLAGVAIGSTMGSGNGKIAAALIAGGIGAYVGNRIGHMLDEKDQQALALRTQEVLSQQQTTASAQPVTWKSDHSGATAQIVPGKEYTKTKQVEVKRAPKIQAVPSMKLINEPYVTISDNLNVRAAPNQAGEKVGSLKNHTEFTAVGSTGDWILVGRKGVTVGYVHKNYVEPKAQAVAKRVTPAVNLDELDVAASKETQGFDLDSVQSLPTQTVAAEAACRPVTVSLKSQSGQTEQEQNTFCKQANGTWELI", "soluble on expression in E. coli": "not soluble"}
{"sequence": "MGSDKIHHHHHHMSDLINIQKKLLPDVLMIMQKRYQILRSIYFSEPVGRRTLAGMLGMSERVLRGEVEFLKAQGLVEIASSGMTVTKEGLVVFRDLESVMNQLSGLHSMEEQLAKKLQIKKCLVVQGDSDDTPWVREEMGRVAVEQLDMALTEKRNIVAVMGGSTMATVAEMMTTDFAKGRELLFVPGRGGIGEDLDNQANTICDKMATKTNTKHRVLYVPEQLGEEAYRSLLKEPAIQEGLRLVQSANAIILGIGDALAMAKRRHTGEDVLEKIIHRKAVGEAFGYYFDEQGEVVHKVPTFGLQFEDLAQIPHIIAVAGGTSKAKAIKSYMKSAPKNTILITDEGAAKSLLKGSNTLLK", "soluble on expression in E. coli": "not soluble"}
{"sequence": "MDPGKKKQHICHIQGCGKVYGKTSHLRAHLRWHTGER", "soluble on expression in E. coli": "soluble"}
